Test results from paper PMC5374433, “Theranostic Value of Multimers: Lessons Learned from Trimerization of Neurotensin Receptor Ligands and Other Targeting Vectors” (Pharmaceuticals, 2017).
Where two headings read alike, the source gives them in different places.

Experiments:
[1] = in vivo; cited from earlier work
human NTS1 = human NTS1 (Homo sapiens, UniProt P30989); assay: Competitive radioligand binding assay, NTS1; details: Ki (NTS1, nM), membranes of CHO cells stably expressing human NTS1; mean ± SEM, 4-8 experiments
Sequence of human NTS1 (P30989 whole entry): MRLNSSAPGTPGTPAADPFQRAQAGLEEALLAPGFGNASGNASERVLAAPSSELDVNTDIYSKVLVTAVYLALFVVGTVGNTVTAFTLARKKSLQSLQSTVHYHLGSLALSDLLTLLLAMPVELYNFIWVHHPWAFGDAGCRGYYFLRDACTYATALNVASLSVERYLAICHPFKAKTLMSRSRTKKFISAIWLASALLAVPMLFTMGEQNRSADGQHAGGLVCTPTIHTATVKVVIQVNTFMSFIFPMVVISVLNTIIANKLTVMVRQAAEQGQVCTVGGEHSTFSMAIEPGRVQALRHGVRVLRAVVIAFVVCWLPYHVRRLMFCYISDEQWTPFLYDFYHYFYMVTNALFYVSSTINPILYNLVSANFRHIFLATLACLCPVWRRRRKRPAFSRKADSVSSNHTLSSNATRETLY
Method: (§1) Receptor binding data were performed as described previously. […] NTS2 binding was conducted using homogenates of membranes from HEK 293 cells transiently transfected with pcDNA3.1 carrying the human NTS2 gene (Missouri S&T cDNA Resource Center (UMR), Rolla, MO, USA) using the Mirus TransIT-293 transfection reagent (MoBiTec, Göttingen, Germany) according to the manufacturer’s protocol.
(§2) Data analysis of the competition binding curves from the radioligand displacement experiments was done by non-linear regression analysis when applying the algorithms of the PRISM 6.0 software package (GraphPad Software, San Diego, CA, USA). EC50 values were derived from each dose-response curve and were subsequently transformed into the corresponding Ki values by applying the equation of Cheng and Prusoff. Mean Ki values and the corresponding S.E.M. values (standard error of the mean) were determined by analyzing four to eight individual experiments.

[2] = Octanol/PBS distribution coefficient log D pH 7.4; assay type: physicochemical
human NTS2 = biological target: T1, human NTS2 (Homo sapiens, UniProt O95665); assay: Competitive radioligand binding assay, NTS2
T1 construct: host or cells: HEK 293 cells (transient transfection, pcDNA3.1)
T1 sequence (O95665 whole entry): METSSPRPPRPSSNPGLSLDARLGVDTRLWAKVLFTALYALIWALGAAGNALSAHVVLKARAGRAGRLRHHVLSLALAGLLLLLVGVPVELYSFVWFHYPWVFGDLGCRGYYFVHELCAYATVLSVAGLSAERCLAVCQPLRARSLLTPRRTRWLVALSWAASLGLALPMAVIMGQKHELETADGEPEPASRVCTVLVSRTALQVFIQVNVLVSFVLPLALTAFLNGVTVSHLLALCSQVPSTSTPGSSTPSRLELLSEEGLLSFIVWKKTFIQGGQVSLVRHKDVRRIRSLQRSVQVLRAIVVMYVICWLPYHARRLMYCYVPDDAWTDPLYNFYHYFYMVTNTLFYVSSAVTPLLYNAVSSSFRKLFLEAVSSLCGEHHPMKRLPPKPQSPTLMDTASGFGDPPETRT
Method: as §1, §2

[3] = Biodistribution in HT29 tumor-bearing nude mice; assay type: in vivo, mouse; details: mouse, in vivo, 60 min p.i.
Method: For in vivo evaluation of [^68Ga]Ga-TRAP(NT4)3 the NTS1-positive human colorectal adenocarcinoma cells HT29 were injected in nude mice to generate a subcutaneous tumor. The radioligand was injected in the tail vein of the mice and the biodistribution was determined 60 and 90 min after tracer injection. […] The clearance rate of [^68Ga]Ga-TRAP(NT4)3 in these excretion organs was apparently low. […] (1.44 %ID/g). Blocking experiments were performed to confirm the specificity of the tumor uptake of [^68Ga]Ga-TRAP(NT4)3 in vivo. Therefore, TRAP(NT4)3 (20 nmol) or NT4 (100 nmol) were co-injected together with the radiotracer to define the nonspecific uptake of the tracer in the tumor region. […] Apart from the intestine, the uptake in all other organs was not affected by the blocking substances (Table 2), confirming the receptor-mediated uptake of [^68Ga]Ga-TRAP(NT4)3, as it was reported that NTS receptors are expressed in the small intestine of mice.
All animal experiments were performed in compliance with the protocols approved by the local Animal Protection Authorities (Regierung Mittelfranken, Germany, no. 54-2532.1-15/08). Female athymic NMRI nude mice (nu/nu) were obtained from Harlan Winkelmann GmbH (Borchen, Germany) at four weeks of age and were kept under standard conditions (12 h light/dark) with food and water available ad libitum for at least five weeks. HT29 tumors were generated as described before.
HT29 xenografted nude mice were injected with [^68Ga]Ga-TRAP(NT4)3 into a tail vein (2.5–7.5 MBq/mouse). The animals were killed by cervical dislocation 60 or 90 min p.i. The tumors, other tissues (lung, liver, kidneys, heart, spleen, brain, muscle, femur, and intestine) and blood were removed and weighed. Radioactivity of the samples was measured using a γ-counter and expressed as the percentage of injected dose per gram of tissue (%ID/g), from which tumor-to-blood ratios were calculated. Blocking experiments were carried out by co-injecting randomly chosen mice with TRAP(NT4)3 (20 nmol/mouse) or NT4 (100 nmol/mouse) together with the radiotracer. These mice were killed by cervical dislocation at 60 min p.i., and organs and tissue were removed, weighed, and counted as described above.

H2009 xenograft = details: in vivo, 1.5 h; cited from earlier work
αvβ6 integrin [4] = tested on: αvβ6 integrin; design: method as in PMID 27980050; details: Ga complexes; read-out: Affinity IC50 (nM), αvβ6 integrin; cited from earlier work
[5] = cited from earlier work
[6] = in vivo, H2009 xenograft, 90 min p.i., estimated from PET ROI analysis, ± SD
αvβ6 integrin [7] = assay: Affinity to αvβ6 integrin; assay type: binding; details: Ga complexes
[8] = Biodistribution, LNCaP xenograft; details: in vivo, 60 min p.i., estimated from PET ROI analysis, ± SD
PSMA = tested on: PSMA; design: method as in PMID 25999035; details: Ga complexes; read-out: Affinity IC50 (nM), PSMA; cited from earlier work

Question: For “Arg^8-Arg^9-Pro^10-Tyr^11-Ile^12-Leu^13-OH [NT(8–13)]”, which biological half-life [1] is on record?
Answer: only a few minutes, or even less

Question: Which Ki (human NTS1) does the source give for `CC(C)C[C@H](NC(=O)[C@@H](NC(=O)[C@H](Cc1ccc(O)cc1)NC(=O)[C@@H]1CCCN1C(=O)[C@H](CCCCN)NC(=O)CN(CCCCN)C(=O)[C@@H](N)CCCCn1cc(CNC(=O)CCP(=O)(O)CN2CCN(CP(=O)(O)CCC(=O)NCc3cn(CCCC[C@H](N)C(=O)N(CCCCN)CC(=O)N[C@@H](CCCCN)C(=O)N4CCC[C@H]4C(=O)N[C@@H](Cc4ccc(O)cc4)C(=O)N[C@H](C(=O)N[C@@H](CC(C)C)C(=O)O)C(C)(C)C)nn3)CCN(CP(=O)(O)CCC(=O)NCc3cn(CCCC[C@H](N)C(=O)N(CCCCN)CC(=O)N[C@@H](CCCCN)C(=O)N4CCC[C@H]4C(=O)N[C@@H](Cc4ccc(O)cc4)C(=O)N[C@H](C(=O)N[C@@H](CC(C)C)C(=O)O)C(C)(C)C)nn3)CC2)nn1)C(C)(C)C)C(=O)O` (single isomer, unassigned) [Ga-TRAP(NT4)3] here?
Answer: 0.12 ± 0.03 nM

Question: For `CC(C)C[C@H](NC(=O)[C@@H](NC(=O)[C@H](Cc1ccc(O)cc1)NC(=O)[C@@H]1CCCN1C(=O)[C@H](CCCCN)NC(=O)CN(CCCCN)C(=O)[C@@H](N)CCCCn1cc(CNC(=O)CCP(=O)(O)CN2CCN(CP(=O)(O)CCC(=O)NCc3cn(CCCC[C@H](N)C(=O)N(CCCCN)CC(=O)N[C@@H](CCCCN)C(=O)N4CCC[C@H]4C(=O)N[C@@H](Cc4ccc(O)cc4)C(=O)N[C@H](C(=O)N[C@@H](CC(C)C)C(=O)O)C(C)(C)C)nn3)CCN(CP(=O)(O)CCC(=O)NCc3cn(CCCC[C@H](N)C(=O)N(CCCCN)CC(=O)N[C@@H](CCCCN)C(=O)N4CCC[C@H]4C(=O)N[C@@H](Cc4ccc(O)cc4)C(=O)N[C@H](C(=O)N[C@@H](CC(C)C)C(=O)O)C(C)(C)C)nn3)CC2)nn1)C(C)(C)C)C(=O)O` [TRAP(NT4)3], which logD ([2]; octanol/PBS, Ga complex, ± standard deviation, first reported herein, read-out: log D pH 7.4) is on record?
Answer: -3.7 ± 0.1

Question: And the Ki (human NTS2)?
Answer: 0.26 ± 0.05 nM

Question: And the Ki (human NTS1)?
Answer: 0.47 ± 0.05 nM

Question: What about the tissue uptake at 1 h ([3]; read-out: HT29 tumor uptake) of the same compound?
Answer: 1.74 %ID/g

Question: And the tissue uptake at 1 h ([3]; read-out: blood uptake)?
Answer: 0.13 %ID/g

Question: And the tissue uptake at 1 h ([3]; read-out: kidney uptake)?
Answer: 95 %ID/g

Question: What about the tissue uptake at 1 h ([3]; read-out: liver uptake) of the same compound?
Answer: 11 %ID/g

Question: What about the tissue uptake at 1 h ([3]; read-out: muscle uptake) of the same compound?
Answer: 0.09 %ID/g

Question: For “TRAP(AvB6)1: Ga-monomer of c(FRGDLAF-p[NMe]K), αvβ6 integrin (cyclo(FRGDLAF); not fully specified (C-terminus); also: TRAP chelator Ga complex, attachment site not given here)”, which “Blood %ID/g” value (H2009 xenograft) is on record?
Answer: 0.17 %ID/g

Question: And the “Kidney %ID/g” value (H2009 xenograft)?
Answer: 4.3 %ID/g

Question: And the “Liver %ID/g” value (H2009 xenograft)?
Answer: 0.36 %ID/g

Question: What about the “Muscle %ID/g” value (H2009 xenograft) of the same compound?
Answer: 0.06 %ID/g

Question: What about the “Tumor %ID/g” value (H2009 xenograft) of the same compound?
Answer: 0.65 %ID/g

Question: And the IC50 (αvβ6 integrin [4])?
Answer: 0.26 nM

Question: What about the “log D pH 7.4” value [5] of the same compound?
Answer: −3.7

Question: Which tissue uptake at 1.5 h ([6]; Blood %ID/g) does the source give for `CC(C)C[C@@H]1NC(=O)[C@H](CC(=O)O)NC(=O)CNC(=O)[C@H](CCCNC(=N)N)NC(=O)[C@H](Cc2ccccc2)NC(=O)[C@H](CCCCNC(=O)CCc2cn(CCCNC(=O)CCP(=O)(O)CN3CCN(CP(=O)(O)CCC(=O)NCCCn4cc(CCC(=O)NCCCC[C@H]5C(=O)N[C@@H](Cc6ccccc6)C(=O)N[C@@H](CCCNC(=N)N)C(=O)NCC(=O)N[C@@H](CC(=O)O)C(=O)N[C@@H](CC(C)C)C(=O)N[C@@H](C)C(=O)N[C@@H](Cc6ccccc6)C(=O)N6CCC[C@@H]6C(=O)N5C)nn4)CCN(CP(=O)(O)CCC(=O)NCCCn4cc(CCC(=O)NCCCC[C@H]5C(=O)N[C@@H](Cc6ccccc6)C(=O)N[C@@H](CCCNC(=N)N)C(=O)NCC(=O)N[C@@H](CC(=O)O)C(=O)N[C@@H](CC(C)C)C(=O)N[C@@H](C)C(=O)N[C@@H](Cc6ccccc6)C(=O)N6CCC[C@@H]6C(=O)N5C)nn4)CC3)nn2)N(C)C(=O)[C@H]2CCCN2C(=O)[C@H](Cc2ccccc2)NC(=O)[C@H](C)NC1=O` [TRAP(AvB6)3] here?
Answer: 1.9 ± 0.15 %ID/g

Question: What about the tissue uptake at 1.5 h ([6]; Kidney %ID/g) of the same compound?
Answer: 17.7 ± 6.5 %ID/g

Question: What about the tissue uptake at 1.5 h ([6]; Liver %ID/g) of the same compound?
Answer: 3.7 ± 0.14 %ID/g

Question: What about the tissue uptake at 1.5 h ([6]; Muscle %ID/g) of the same compound?
Answer: 0.71 ± 0.1 %ID/g

Question: And the tissue uptake at 1.5 h ([6]; Tumor %ID/g)?
Answer: 0.92 ± 0.08 %ID/g

Question: What about the IC50 (αvβ6 integrin [4]) of the same compound?
Answer: 0.023 nM

Question: What about the “Affinity factor monomer/trimer, αvβ6 integrin” value (αvβ6 integrin [7]) of the same compound?
Answer: 11

Question: Which logD [2] does the source give for `O=C(O)CC[C@H](NC(=O)N[C@@H](CCCCNC(=O)CCCCCCC(=O)NCCCC[C@H](NC(=O)[C@H](Cc1ccccc1)NC(=O)[C@H](Cc1ccccc1)NC(=O)CCC(C(=O)O)N1CCN(CC(=O)O)CCN(CC(=O)O)CCN(CC(=O)O)CC1)C(=O)O)C(=O)O)C(=O)O` (stereo partly shown) [DOTAGA-DUPA] here?
Answer: -3.6 ± 0.2

Question: And the tissue uptake at 1 h ([8]; read-out: Blood %ID/g)?
Answer: 2.5 ± 0.14 %ID/g

Question: What about the tissue uptake at 1 h ([8]; read-out: Kidney %ID/g) of the same compound?
Answer: 29 ± 7 %ID/g

Question: What about the tissue uptake at 1 h ([8]; read-out: Liver %ID/g) of the same compound?
Answer: 2 ± 0.17 %ID/g

Question: And the tissue uptake at 1 h ([8]; read-out: Muscle %ID/g)?
Answer: 1.2 ± 0.13 %ID/g

Question: What about the tissue uptake at 1 h ([8]; read-out: Tumor %ID/g) of the same compound?
Answer: 2 ± 0.2 %ID/g

Question: What about the IC50 (PSMA) of the same compound?
Answer: 36 nM
